This is an account of results in the supplement of paper PMC7877785.

± gives the uncertainty stated by the source.

This data set can be described thus: self-splicing fitness, log relative to wild type (ln ratio); higher = more splicing; Tetrahymena group I intron in knt gene, E. coli kanamycin selection, DiMSum; sequences stand for … in CUCUCU…GGAGGGAAAAGUUAUCAGGCAUGCACCUGGUAGCUAGUCUUUAAACCAAUAGAUUGCAUCGGUUUAAAAGGCAAGACCGUCAAAUUGCGGGAAAGGGGUCAACAGCCGUUCAGUACCAAGUCUCAGGGGAAACUUUGAGAUGGCCUUGCAAAGGGUAUGGUAAUAAGCUGACGGACAUGGUCCUAACCACGCAGCCAAGUCCUAAGUCAACAGAUCUUCUGUUGAUAUGGAUGCAGUUCACAGACUAAAUGUCGGUCGGGGAAGAUGUAUUCUUCUCAUAAGAUAUAGUCGGACCUCUCCUUAAUGGGAGCUAGCGGAUGAAGUGAUGCAACACUGGAGCCGCUGGGAACUAAUUUGUAUGCGAAAGUAUAUUGAUUAGUUUUGGAGUACUCGUGGUCG
The essentials: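 Library with all eight P1ex-region intron nucleotides randomised, intron inside the knt kanamycin-resistance gene on pET-22b(+), in E. coli BL21(DE3). Cells grew overnight at 37°C or 30°C on LB agar with or without 25 μg/mL kanamycin (plus 100 μg/mL carbenicillin, 50 μM IPTG, 0.2% rhamnose), in six replicate transformations. Pooled colonies were amplicon-sequenced on Illumina HiSeq 2500. DiMSum fitness is the error-weighted combination of wild-type-normalised replicate fold changes, kanamycin versus none.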

AAGAAGCAAUAUUACGUGUC: the “self-splicing fitness (ln)” value reads like this: (30 °C) -3.38 ± 0.15; (37 °C) -2.09 ± 0.17.
The corresponding values for UGCGAGCAAUAUUACGCAUU are -5.15 ± 0.34 and -3.1 ± 0.23.
As for CAGUAGCAAUAUUACGUAGA, the “self-splicing fitness (ln)” value (30 °C) is -3.03 ± 0.14 and the “self-splicing fitness (ln)” value (37 °C) was -1.85 ± 0.16.
The corresponding values for GGGCAGCAAUAUUACGUAGG are -2.38 ± 0.075 and -1.32 ± 0.091.
As to GGGGAGCAAUAUUACGGGCC, the “self-splicing fitness (ln)” value (37 °C) was -1.4 ± 0.28.
UUAGAGCAAUAUUACGCCAA: the “self-splicing fitness (ln)” value runs as follows: (30 °C) -0.503 ± 0.16; (37 °C) -0.0692 ± 0.2.
For UUGGAGCAAUAUUACGGUCU the same measures were -3.4 ± 0.49 and -2.45 ± 0.48.
For CAGCAGCAAUAUUACGCGGG the same measures were -2.78 ± 0.17 and -2.31 ± 0.2.
The corresponding values for UUAUAGCAAUAUUACGCAAG are -1.35 ± 0.16 and -1.89 ± 0.19.
With AUGUAGCAAUAUUACGGCAG, the “self-splicing fitness (ln)” value runs as follows: (30 °C) -0.715 ± 0.073; (37 °C) 0.288 ± 0.11.
The corresponding values for CUAAAGCAAUAUUACGGGAG are -0.542 ± 0.056 and 0.188 ± 0.077.
The corresponding values for CAGCAGCAAUAUUACGGUGC are -2.99 ± 0.17 and -2.1 ± 0.28.
As to AACUAGCAAUAUUACGUCAC, the “self-splicing fitness (ln)” value (30 °C) was -2.87 ± 0.18.
Regarding ACCGAGCAAUAUUACGUCAA, the “self-splicing fitness (ln)” value runs as follows: (30 °C) -3.16 ± 0.19; (37 °C) -2.36 ± 0.3.
With ACCUAGCAAUAUUACGAACU, the “self-splicing fitness (ln)” value (30 °C) is -0.308 ± 0.084 and the “self-splicing fitness (ln)” value (37 °C) turned out to be 0.0875 ± 0.11.
For GGAAAGCAAUAUUACGGGAU the same measures were -2.64 ± 0.17 and -1.1 ± 0.14.
For UACCAGCAAUAUUACGGCAU the same measures were -1.37 ± 0.089 and -0.029 ± 0.11.
As to UACGAGCAAUAUUACGUCCU, the “self-splicing fitness (ln)” value reads like this: (30 °C) -2.87 ± 0.22; (37 °C) -1.38 ± 0.19.
Turning to UUAUAGCAAUAUUACGUACU, the “self-splicing fitness (ln)” value (30 °C) was -1.49 ± 0.18 and the “self-splicing fitness (ln)” value (37 °C) was -1 ± 0.23.
The corresponding values for AACAAGCAAUAUUACGGCGU are -0.173 ± 0.063 and 0.163 ± 0.071.
For CUUAAGCAAUAUUACGAGAU the same measures were -2.92 ± 0.22 and -1.59 ± 0.2.
The corresponding values for CCUCAGCAAUAUUACGGUAC are -4.96 ± 0.32 and -2.26 ± 0.26.
Take UACCAGCAAUAUUACGUCAC: the “self-splicing fitness (ln)” value reads like this: (30 °C) -4.46 ± 0.42; (37 °C) -2.32 ± 0.35.
For CGUAAGCAAUAUUACGCCGA the same measures were -3.5 ± 0.25 and -1.44 ± 0.14.
For GAGCAGCAAUAUUACGGCCU the same measures were -0.475 ± 0.07 and -0.0538 ± 0.081.
The corresponding values for UUACAGCAAUAUUACGUCAA are -1.14 ± 0.082 and -0.187 ± 0.081.
As to UGUCAGCAAUAUUACGGUGC, the “self-splicing fitness (ln)” value by setting is: (30 °C) -3.51 ± 0.43; (37 °C) -2.74 ± 0.38.
With CUAGAGCAAUAUUACGUGAC, the “self-splicing fitness (ln)” value is, setting by setting: (30 °C) -1.08 ± 0.12; (37 °C) -1.31 ± 0.17.
For GAUGAGCAAUAUUACGUUUG the same measures were -3.24 ± 0.21 and -2.77 ± 0.26.
For GCAAAGCAAUAUUACGGUAA the same measures were -0.837 ± 0.12 and -0.921 ± 0.13.
With CCUUAGCAAUAUUACGAUUU, the “self-splicing fitness (ln)” value is -4.25 ± 0.42 (30 °C) and -2.44 ± 0.35 (37 °C).
The corresponding values for AUCCAGCAAUAUUACGUAGG are -2.91 ± 0.14 and -1.49 ± 0.12.
The corresponding values for AUCUAGCAAUAUUACGACUA are -0.918 ± 0.2 and -0.511 ± 0.16.
For GAGGAGCAAUAUUACGCAGC, under “37 °C”, the “self-splicing fitness (ln)” value is -1.04 ± 0.44.
UGGUAGCAAUAUUACGAGAC: the “self-splicing fitness (ln)” value was -1.69 ± 0.24 (30 °C) and -2.71 ± 0.43 (37 °C).
For CAACAGCAAUAUUACGGGUU the same measures were -3.14 ± 0.15 and -1.78 ± 0.12.
As to GUGCAGCAAUAUUACGCUGA, the “self-splicing fitness (ln)” value was -2.38 ± 0.17 (30 °C) and -1.6 ± 0.16 (37 °C).
The corresponding values for UCGAAGCAAUAUUACGGCUA are -2.29 ± 0.15 and -1.41 ± 0.099.
On to CUGAAGCAAUAUUACGAGAG, for which the “self-splicing fitness (ln)” value (30 °C) was -1.32 ± 0.088 and the “self-splicing fitness (ln)” value (37 °C) was -1.18 ± 0.11.
For AACUAGCAAUAUUACGAGUU the same measures were -3.44 ± 0.24 and -1.89 ± 0.22.
For UCUAAGCAAUAUUACGGUAA, the “self-splicing fitness (ln)” value is, setting by setting: (30 °C) -3.48 ± 0.36; (37 °C) -1.33 ± 0.19.
The corresponding values for UAAAAGCAAUAUUACGCUAA are -1.86 ± 0.14 and -0.863 ± 0.13.
For the sequence GUACAGCAAUAUUACGAUAA, the “self-splicing fitness (ln)” value is -1.95 ± 0.12 (30 °C) and -0.911 ± 0.13 (37 °C).
As for CAGUAGCAAUAUUACGCCCU, under “37 °C”, the “self-splicing fitness (ln)” value was -1.3 ± 0.32.
For ACACAGCAAUAUUACGGGUU, the “self-splicing fitness (ln)” value was -2.86 ± 0.077 (30 °C) and -1.85 ± 0.082 (37 °C).
The corresponding values for CCCUAGCAAUAUUACGUUAA are -3.42 ± 0.18 and -3.16 ± 0.29.
For CCCGAGCAAUAUUACGAGUA the same measures were -3.01 ± 0.16 and -2.37 ± 0.14.
For UCAGAGCAAUAUUACGGGGC the same measures were -3.3 ± 0.26 and -2.42 ± 0.41.
For UUAAAGCAAUAUUACGGGAG, the “self-splicing fitness (ln)” value was -1.34 ± 0.08 (30 °C) and -0.293 ± 0.12 (37 °C).
Consider CGUAAGCAAUAUUACGGUUG, for which the “self-splicing fitness (ln)” value runs as follows: (30 °C) -0.897 ± 0.061; (37 °C) -0.159 ± 0.078.
For AGUUAGCAAUAUUACGCUCA the same measures were -1.23 ± 0.16 and -0.21 ± 0.15.
For GGGCAGCAAUAUUACGGCCG the same measures were -1.5 ± 0.16 and -1.59 ± 0.26.
The corresponding values for GAGUAGCAAUAUUACGGCUU are -2.2 ± 0.12 and -1.78 ± 0.15.
As to CGUCAGCAAUAUUACGUAUG, the “self-splicing fitness (ln)” value reads like this: (30 °C) -0.163 ± 0.12; (37 °C) 0.188 ± 0.13.
The corresponding values for CGCCAGCAAUAUUACGUAUC are -3.94 ± 0.33 and -3.92 ± 0.42.
For CCCGAGCAAUAUUACGGUGA the same measures were -2.19 ± 0.1 and -1.32 ± 0.097.
For UAAAAGCAAUAUUACGAGAG, the “self-splicing fitness (ln)” value runs as follows: (30 °C) -3.35 ± 0.19; (37 °C) -1.6 ± 0.13.
The corresponding values for AUACAGCAAUAUUACGGUAA are -0.731 ± 0.094 and -0.502 ± 0.093.
The corresponding values for UGGAAGCAAUAUUACGACGU are -1.62 ± 0.15 and -0.761 ± 0.2.
For GCUGAGCAAUAUUACGAUAG the same measures were -1.35 ± 0.25 and -1.83 ± 0.26.
With GGGAAGCAAUAUUACGGGUA, the “self-splicing fitness (ln)” value (30 °C) is -0.928 ± 0.2 and the “self-splicing fitness (ln)” value (37 °C) is -2.25 ± 0.23.
